The source of these data is ChEMBL document CHEMBL1136363, “Rational approaches towards reversible inhibition of type B monoamine oxidase. Design and evaluation of a novel 5H-Indeno[1,2-c]pyridazin-5-one derivative” (Bioorg Med Chem Lett, 2003).

Substrate in series [1]: CN1CC=C(C2CCCN2C)CC1
Briefly: Km value for Monoamine oxidase B was determined in baboon liver tissue. The arrangement: species or system Papio hamadryas.

Substrate in series [2]: CN1CC=C(C2CCCN2C)CC1
Briefly: Km value for Monoamine oxidase A was determined in human placental tissue.

B1: Amine oxidase [flavin-containing] B (Homo sapiens) (protein)
chain: MSNKCDVVVVGGGISGMAAAKLLHDSGLNVVVLEARDRVGGRTYTLRNQKVKYVDLGGSYVGPTQNRILRLAKELGLETYKVNEVERLIHHVKGKSYPFRGPFPPVWNPITYLDHNNFWRTMDDMGREIPSDAPWKAPLAEEWDNMTMKELLDKLCWTESAKQLATLFVNLCVTAETHEVSALWFLWYVKQCGGTTRIISTTNGGQERKFVGGSGQVSERIMDLLGDRVKLERPVIYIDQTRENVLVETLNHEMYEAKYVISAIPPTLGMKIHFNPPLPMMRNQMITRVPLGSVIKCIVYYKEPFWRKKDYCGTMIIDGEEAPVAYTLDDTKPEGNYAAIMGFILAHKARKLARLTKEERLKKLCELYAKVLGSLEALEPVHYEEKNWCEEQYSGGCYTTYFPPGILTQYGRVLRQPVDRIYFAGTETATHWSGYMEGAVEAGERAAREILHAMGKIPEDEIWQSEPESVDVPAQPITTTFLERHLPSVPGLLRLIGLTTIFSATALGFLAHKRGLLVRV
As usually defined, the Km is the concentration of substrate that gives half-maximal velocity. With B1, the Km in series [1] was found to be 60.9 µM.

B2: Amine oxidase [flavin-containing] A (Homo sapiens) (protein)
chain: MENQEKASIAGHMFDVVVIGGGISGLSAAKLLTEYGVSVLVLEARDRVGGRTYTIRNEHVDYVDVGGAYVGPTQNRILRLSKELGIETYKVNVSERLVQYVKGKTYPFRGAFPPVWNPIAYLDYNNLWRTIDNMGKEIPTDAPWEAQHADKWDKMTMKELIDKICWTKTARRFAYLFVNINVTSEPHEVSALWFLWYVKQCGGTTRIFSVTNGGQERKFVGGSGQVSERIMDLLGDQVKLNHPVTHVDQSSDNIIIETLNHEHYECKYVINAIPPTLTAKIHFRPELPAERNQLIQRLPMGAVIKCMMYYKEAFWKKKDYCGCMIIEDEDAPISITLDDTKPDGSLPAIMGFILARKADRLAKLHKEIRKKKICELYAKVLGSQEALHPVHYEEKNWCEEQYSGGCYTAYFPPGIMTQYGRVIRQPVGRIFFAGTETATKWSGYMEGAVEAGERAAREVLNGLGKVTEKDIWVQEPESKDVPAVEITHTFWERNLPSVSGLLKIIGFSTSVTALGFVLYKYKLLPRS
For B2, the Km in series [2] stood at 52 µM.
